Test results as given in PMC11507936.

Columns and labels:
[1] = biological target: phosphorylated SARS-CoV-2 Nucleocapsid protein (pN) (SARS-CoV-2) (UniProt P0DTC9); test: […]
[2] = biological target: SARS-CoV-2 Nucleocapsid protein (N), unmodified (SARS-CoV-2) (UniProt P0DTC9); test: […]

Row | Substance | partition coefficient [1] | partition coefficient [2]
1 | 6xHis-GFP-M^104–222 (C-terminal endodomain of the SARS-CoV-2 Membrane protein) (from UniProt P0DTC5 104-222) (domain or fragment) | 0.3 | 9.8
2 | 6xHis-GFP-Nsp3^1–111 (ubiquitin-like domain 1 of SARS-CoV-2 Nsp3) (domain or fragment) | 2.2 | 12.6
